Where a chain is given by its changes, count along the chain named.
Legend:
Test in all cases: direct ELISA on coated protein, IgG1
hTWEAK-Fc = target: T1, hTWEAK-Fc (human, UniProt O43508)
T1 construct: Fc fusion; member of the panel m9
T1 sequence (looked up): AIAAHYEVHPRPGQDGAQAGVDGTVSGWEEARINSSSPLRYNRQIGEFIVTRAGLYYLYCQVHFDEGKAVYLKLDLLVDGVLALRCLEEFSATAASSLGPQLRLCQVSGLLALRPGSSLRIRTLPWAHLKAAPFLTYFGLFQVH

h4-1BB-Fc = target: T2, h4-1BB-Fc
T2 construct: member of the panel m9

hDR3-Fc = target: T3, hDR3-Fc (human, UniProt Q93038)
T3 construct: Fc fusion; member of the panel m9
T3 sequence (looked up): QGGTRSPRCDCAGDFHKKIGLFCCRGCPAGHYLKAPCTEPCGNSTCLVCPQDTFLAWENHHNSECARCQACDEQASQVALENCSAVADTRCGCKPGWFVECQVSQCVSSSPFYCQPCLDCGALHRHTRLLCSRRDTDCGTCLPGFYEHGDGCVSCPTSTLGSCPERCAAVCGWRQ

hDR6-Fc = target: T4, hDR6-Fc (human, UniProt O75509)
T4 construct: Fc fusion; member of the panel m9
T4 sequence (looked up): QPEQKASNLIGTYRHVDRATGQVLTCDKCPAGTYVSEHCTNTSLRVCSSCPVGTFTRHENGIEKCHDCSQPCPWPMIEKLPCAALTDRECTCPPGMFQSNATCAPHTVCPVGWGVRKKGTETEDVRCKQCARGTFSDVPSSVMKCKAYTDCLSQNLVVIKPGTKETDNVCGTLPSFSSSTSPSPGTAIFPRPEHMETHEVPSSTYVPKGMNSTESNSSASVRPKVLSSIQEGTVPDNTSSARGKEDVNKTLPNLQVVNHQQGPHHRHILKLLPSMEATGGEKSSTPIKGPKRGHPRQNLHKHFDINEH

hCD4 = target: T5, hCD4 (human, UniProt P01730)
T5 construct: purified recombinant protein; member of the panel m9

hLTBR-Fc = target: T6, hLTBR-Fc (human, UniProt P36941)
T6 construct: Fc fusion; member of the panel m9
T6 sequence (P36941 28-227 limits assumed): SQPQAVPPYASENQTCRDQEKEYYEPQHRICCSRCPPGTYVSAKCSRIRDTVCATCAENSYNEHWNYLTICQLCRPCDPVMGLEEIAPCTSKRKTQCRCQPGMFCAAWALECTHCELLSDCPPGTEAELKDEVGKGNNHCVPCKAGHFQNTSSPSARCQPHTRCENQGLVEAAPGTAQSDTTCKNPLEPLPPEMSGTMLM

hVCAM-Fc = target: T7, hVCAM-Fc
T7 construct: member of the panel m9
T7 chain: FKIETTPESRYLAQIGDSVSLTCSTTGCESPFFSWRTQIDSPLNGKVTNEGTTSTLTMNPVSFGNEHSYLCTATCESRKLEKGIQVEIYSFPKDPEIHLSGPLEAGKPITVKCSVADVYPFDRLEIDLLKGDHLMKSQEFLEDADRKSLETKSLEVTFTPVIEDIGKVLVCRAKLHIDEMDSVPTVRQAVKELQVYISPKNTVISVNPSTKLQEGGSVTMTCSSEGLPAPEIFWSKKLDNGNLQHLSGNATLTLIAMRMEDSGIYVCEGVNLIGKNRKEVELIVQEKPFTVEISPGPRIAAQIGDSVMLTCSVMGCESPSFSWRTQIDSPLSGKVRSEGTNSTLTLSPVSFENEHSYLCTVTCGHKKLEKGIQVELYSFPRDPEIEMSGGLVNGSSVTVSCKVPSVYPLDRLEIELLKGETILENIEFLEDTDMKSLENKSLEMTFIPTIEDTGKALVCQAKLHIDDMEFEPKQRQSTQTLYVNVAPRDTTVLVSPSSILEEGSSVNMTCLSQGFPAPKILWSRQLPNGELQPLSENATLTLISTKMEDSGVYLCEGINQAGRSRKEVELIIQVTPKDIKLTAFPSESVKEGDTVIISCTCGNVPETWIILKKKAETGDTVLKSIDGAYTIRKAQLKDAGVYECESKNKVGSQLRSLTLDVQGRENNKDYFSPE

hVCAM-1 = target: T8, hVCAM-1 (human, UniProt P19320)
T8 construct: purified recombinant protein; member of the panel m9
T8 sequence (looked up): T7 chain

hOX40-Fc = target: T9, hOX40-Fc
T9 construct: member of the panel m9
T9 chain: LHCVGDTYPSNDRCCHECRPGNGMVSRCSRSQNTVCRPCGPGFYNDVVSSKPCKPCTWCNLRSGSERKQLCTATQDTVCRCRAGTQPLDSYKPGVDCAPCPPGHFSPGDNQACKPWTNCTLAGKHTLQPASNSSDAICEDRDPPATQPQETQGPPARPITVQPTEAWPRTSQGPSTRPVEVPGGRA

hCMET-Fc = target: T10, hCMET-Fc (The natural ectodomain is cleaved by furin after residue 307 into disulfide-linked alpha and beta chains. It is given here as one continuous stretch.)
T10 construct: member of the panel m9
T10 chain: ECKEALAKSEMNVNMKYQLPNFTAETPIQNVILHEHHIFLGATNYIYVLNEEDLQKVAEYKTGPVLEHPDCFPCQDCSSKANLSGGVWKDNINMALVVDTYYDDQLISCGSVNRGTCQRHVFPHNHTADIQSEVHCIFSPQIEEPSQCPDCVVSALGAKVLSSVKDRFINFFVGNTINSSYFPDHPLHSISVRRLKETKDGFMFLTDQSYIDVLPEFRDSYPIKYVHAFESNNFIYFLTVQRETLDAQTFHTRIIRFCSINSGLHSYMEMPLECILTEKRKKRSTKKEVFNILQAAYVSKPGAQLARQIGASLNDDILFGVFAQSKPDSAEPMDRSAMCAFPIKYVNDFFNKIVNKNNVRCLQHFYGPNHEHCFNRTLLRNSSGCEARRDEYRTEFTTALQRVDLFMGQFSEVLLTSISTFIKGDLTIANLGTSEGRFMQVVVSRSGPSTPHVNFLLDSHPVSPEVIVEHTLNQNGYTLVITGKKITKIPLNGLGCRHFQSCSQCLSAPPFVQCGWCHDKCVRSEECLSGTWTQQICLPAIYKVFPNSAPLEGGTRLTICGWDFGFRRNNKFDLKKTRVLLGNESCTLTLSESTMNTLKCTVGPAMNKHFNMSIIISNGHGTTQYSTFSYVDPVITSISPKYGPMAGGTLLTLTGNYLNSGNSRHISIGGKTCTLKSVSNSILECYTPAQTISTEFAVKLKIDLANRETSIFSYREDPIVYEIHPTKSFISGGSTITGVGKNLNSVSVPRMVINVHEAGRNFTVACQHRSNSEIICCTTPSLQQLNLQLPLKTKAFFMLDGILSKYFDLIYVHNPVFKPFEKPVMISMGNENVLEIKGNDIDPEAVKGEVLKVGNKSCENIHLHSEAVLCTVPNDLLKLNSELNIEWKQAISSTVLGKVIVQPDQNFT

Measured: binding result

T2 sequence (chain, as listed by the source limits assumed): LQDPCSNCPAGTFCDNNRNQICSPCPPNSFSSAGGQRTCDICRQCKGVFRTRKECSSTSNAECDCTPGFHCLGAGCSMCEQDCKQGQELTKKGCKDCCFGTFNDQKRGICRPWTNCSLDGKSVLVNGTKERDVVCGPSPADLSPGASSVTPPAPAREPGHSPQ

B1: MH5, human IgG1 (antibody, V domains shown)
VH: QVQLVQSGAEVKKPGASVKVSCKASGYTFTDYYMNWVRQAPGQGLEWMGRIYPGSGNTYYAQKFQGRVTMTRDTSTSTVYMELSSLRSEDTAVYYCARGVYYYDYWGQGTLVTVSS
VL: DIQMTQSPSSLSASVGDRVTITCRASQGIRTNLAWFQQKPGKAPKSLIYSASSLQSGVPSRFSGSGSGTDFTLTISSLQPEDFATYYCQQYANYPRTFGGGTKVEIK
notes: IgG1; also called C-KIT-MH5; C-KIT-MHS
not listed: hCMET-Fc
no binding (tested: 1 µg/ml): all other assays above

B2: MH1, human IgG1 (antibody, V domains shown)
VH: B1 VH
VL: B1 VL with S50A, A92N, N93S
notes: IgG1; also called IgG1-MH1
no binding (tested: 1 µg/ml): hCMET-Fc

Source: patent US20200283521A1 (GRANULAR THERAPEUTICS, published 2020)
